In patent US11564995B2, “Peptide-nanoparticle conjugates” (Wisconsin Alumni Research Foundation, priority 2018, dated 2023):
“Also recorded” adds a separate entry of the source. Residues, ends and D or L forms follow the SMILES beside them. No end group written: not given here.

Columns and labels:
786-O cells = assay: Chemosensitivity assay with doxorubicin in cancer cell/Jurkat T cell co-culture; assay type: cell-based, Human; conditions: 786-O cells co-cultured with Jurkat T cells, then DOX; FIG. 22
Experimental: (§1) Cell culture. Human renal cell carcinoma (RCC) cell line, 786-O, and breast cancer cell line, MCF-7, were utilized as high- and low-PD-L1 expressing cancer cell models, respectively. The human T lymphocyte cell line, Jurkat, was used in this study as a representative PD-1-expressing immune cells. 786-O and Jurkat T cells were cultured in RPMI media, while MCF-7 cells were grown in DMEM media. All cell culture media were supplemented with 1% (v/v) penicillin/streptomycin (P/S) and 10% (v/v) fetal bovine serum (FBS). Cells were incubated under humidified atmosphere containing 5% CO2 at 37° C.
Chemosensitivity Assay. Chemosensitivity assay was performed by measuring the synergistic cytotoxicity effect of immune checkpoint inhibitors, together with chemotherapeutic drug, doxorubicin. Cancer cells were plated in 96-well plates (5,000 cells/well) and incubated for 48 h. Cancer cells and Jurkat T cells were pre-treated with IFNγ and PHA/PMA as aforementioned. Cancer cells were then stained with calcein AM (1.5 μM), followed by 2 h treatment with ICIS. The cells were co-cultured for another 24 h in a 1:4 ratio, prior to doxorubicin (5 μM) treatment. The effect of each ICI on cancer cell survival following doxorubicin treatment (2 h) was analyzed based on changes in fluorescent intensity.

fβH2_mt/PD-L1 complex = fβH2_mt/PD-L1 complex (Homo sapiens, UniProt Q9NZQ7); assay: Fluorescence polarization (FP) competition assay; assay type: binding; conditions: 10 nM, PD-L1, 2 μM, FIG. 15
Experimental: Fluorescence polarization (FP) assay. FP assay in PBS was used the PD-L1 binding and competition assays (λex=480 nm; λem=535 nm). Fluorescence anisotropy measurements were performed at room temperature, in a 384-well plate, and using an Infinite® M1000 Pro microplate reader (Tecan). A fβH2_mt/PD-L1 complex was used for the FP competition assay after 30 min incubation time and titrated with the competitors.

[1] = tested on: MCF-7 cells (with a low level of PD-L1 expression); assay: Fluorescence microscopy of cell interaction, MCF-7 cells; assay type: cell-based, Human; conditions: treated 1 h
Experimental: as §1

PD-L1 proteins = target: T1, PD-L1 proteins (Homo sapiens, UniProt Q9NZQ7); assay: Surface plasmon resonance (SPR) binding to immobilized PD-L1
T1 construct: purchased R&D systems
Experimental: Surface plasma resonance (SPR). SPR analysis was done using a BIAcore™ X (Pharmacia Biosensor AB, Uppsala, Sweden). In short, PD-L1 proteins (R&D systems) were immobilized onto carboxylated dextran-coated gold film surface of sensor chip (CM5 sensor chip, GE Healthcare) through EDC/NHS chemistry. 30 μL of sample solution was injected at a flow rate of […]. Sample solution was allowed to flow into both channels (channel 1 for reference, channel 2 with PD-L1), and the final SPR sensorgrams were obtained by subtracting the […].

[2] = tested on: 786-O cells (a PD-L1 overexpressing cell line); assay: Fluorescence microscopy of cell interaction, 786-O cells; assay type: cell-based, Human
Experimental: as §1

T1 sequence (Q9NZQ7 19-290): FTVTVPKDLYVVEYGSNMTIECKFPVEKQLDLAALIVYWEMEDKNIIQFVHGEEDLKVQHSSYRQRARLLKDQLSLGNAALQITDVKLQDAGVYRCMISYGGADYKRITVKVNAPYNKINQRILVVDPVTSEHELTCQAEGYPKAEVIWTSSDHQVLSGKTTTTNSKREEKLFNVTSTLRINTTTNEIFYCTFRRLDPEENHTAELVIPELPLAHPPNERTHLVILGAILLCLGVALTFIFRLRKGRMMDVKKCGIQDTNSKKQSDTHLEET
Sequence of fβH2_mt/PD-L1 complex (Q9NZQ7 19-239 limits assumed, one chain of several): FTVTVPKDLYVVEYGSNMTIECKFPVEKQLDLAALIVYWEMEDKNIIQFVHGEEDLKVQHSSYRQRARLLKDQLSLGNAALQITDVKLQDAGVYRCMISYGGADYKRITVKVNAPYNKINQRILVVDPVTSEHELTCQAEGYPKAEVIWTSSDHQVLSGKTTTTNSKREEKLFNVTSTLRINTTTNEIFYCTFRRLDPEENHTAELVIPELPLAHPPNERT

Compound | decrease of cell viability compared to cells treated with doxorubicin only (786-O cells) | displacement of fβH2_mt from PD-L1 / complex integrity (fβH2_mt/PD-L1 complex) | cell interaction (Rhodamine fluorescence) [1] | PD-L1 affinity relative to βH2_mt (PD-L1 proteins; SPR) | association rate constant (ka) (PD-L1 proteins; SPR) | PD-L1 affinity by SPR sensorgram (comparison in words) (PD-L1 proteins; immobilized PD-L1 proteins, FIG. 4 and 5) | cell interaction (Rhodamine fluorescence) ([2]; 786-O cells, treated 1 h) | PD-L1 selectivity (786-O vs MCF-7 cells) ([2]; fluorescence microscopy, 786-O vs MCF-7) | kon (PD-L1 proteins; SPR, read-out: association rate constant (ka))
G7-βH2_mt: βH2_mt peptides attached to the surface of generation seven (G7) PAMAM dendrimers, rhodamine labelled; about 30 peptides per dendrimer (HVVWHRESPSGQTDTKAA; also: attached to surface of G7 PAMAM dendrimers, about 30 peptides per dendrimer, rhodamine labelled) | 8.4±3.8% | dose-dependent displacement of fβH2_mt from PD-L1; also recorded: more effective competitiveness than aPDL1 antibodies | interacted significantly less | five orders of magnitude higher | 2.52×10^5 | higher affinity to immobilized PD-L1 proteins than G7-βH1_mt; also recorded: higher than that of the wildtype βH2-dendrimer conjugate control (G7-βH2_wt) | strong cell interactions | high PD-L1 selectivity | –
CC(C)[C@H](NC(=O)[C@@H](NC(=O)[C@@H](N)Cc1c[nH]cn1)C(C)C)C(=O)N[C@@H](Cc1c[nH]c2ccccc12)C(=O)N[C@@H](Cc1c[nH]cn1)C(=O)N[C@@H](CCCNC(=N)N)C(=O)N[C@@H](CCC(=O)O)C(=O)N[C@@H](CO)C(=O)N1CCC[C@H]1C(=O)N[C@@H](CO)C(=O)NCC(=O)N[C@@H](CCC(N)=O)C(=O)N[C@H](C(=O)N[C@@H](CC(=O)O)C(=O)N[C@H](C(=O)N[C@@H](CCCCN)C(=O)N[C@@H](C)C(=O)N[C@@H](C)C(N)=O)[C@@H](C)O)[C@@H](C)O [βH2_mt, HVVWHRESPSGQTDTKAA] (H-HVVWHRESPSGQTDTKAA-NH2; N-terminus and C-terminus assumed) | – | – | – | – | – | – | – | – | 1070 M⁻¹ s⁻¹
